Data taken from patent US20120021993A1 (AJOU UNIVERSITY INDUSTRY ACADEMIC COOPERATION FOUNDATION, published 2012).
Residue numbers refer to the chain shown, from its start.

T1: DcR1 (UniProt O14798 26-221, limits assumed)
T1 sequence (looked up): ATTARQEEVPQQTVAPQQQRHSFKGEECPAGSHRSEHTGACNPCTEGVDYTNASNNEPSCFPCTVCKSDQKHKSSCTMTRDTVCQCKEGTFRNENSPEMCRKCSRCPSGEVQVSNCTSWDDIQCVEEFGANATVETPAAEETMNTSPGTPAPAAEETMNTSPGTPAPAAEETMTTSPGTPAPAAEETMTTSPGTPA

T2: DcR2 (UniProt Q9UBN6 56-211, limits assumed)
T2 sequence (looked up): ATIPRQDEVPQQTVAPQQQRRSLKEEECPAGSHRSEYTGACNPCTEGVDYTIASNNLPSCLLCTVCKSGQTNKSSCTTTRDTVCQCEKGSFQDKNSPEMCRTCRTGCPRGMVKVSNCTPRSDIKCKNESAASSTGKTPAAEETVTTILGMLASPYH

B1: KD503 (designed binder)
chain: CTQTKGHRYDGYKYETNWGHQCQAWTKHKPHLHGNGHRNRHKVGHEKNYCRNPDHRDGPWCFTNQYENENELCHQPRC
B2: KD542 (designed binder)
chain: CNRAGGHKYDGDRYRTHRGDGCQNWAKTKPHHHGIGHRDKIRDKYRKNYCRNPDAKNGPWCFTNRNGDKNELCIQPRC
notes: Soluble monomer from Pichia pastoris; not shown: C-terminal myc tag-6xHis tag of pPICZaA
B3: KD502 (designed binder)
chain: CAEDKGARYDGYQYRTHKGIKCQPWYQHEPHYHGHKDKIRHKNRNKKNYCRNPDAGDRPWCFTHRDKYEHELCNRPRC
B4: L56 (KD506) (designed binder)
chain: CMHCSGENYDGKISKTMSGLECQAWDSQSPHAHGYIPSKFPNKNLKKNYCRNPDYETGPWCFTNRYRNKNELCDIPRC
notes: also called KD506L56
B5: L5 (KD506) (designed binder)
chain: B4 chain with N64T, R65D, Y66P, R67N, N68K, K69R, N70W
notes: also called KD506L5
B6: KD506L567 (designed binder)
chain: B4 chain with D74H, I75E
B7: L1234 (KD506) (designed binder)
chain: CPEDRGHEYDGDGDKTNRGHGCQYWDQNKPHHHGHRDKDKFKHRIKKNYCRNPDRELRPWCFTTDPNKRWELCDIPRC
notes: also called KD506L1234
B8: KD404 (designed binder)
chain: CSRDKGYRYDGDGNKTLKGHKCQHWTKSKPHDHGYRHKLGNEDKFKKNYCRNPDTRAGPWCFTDQYRDRDELCYQPRC
notes: Soluble monomer from Pichia pastoris; also called anti-DR4 Kringle domain variant KD404; not shown: C-terminal myc tag-6xHis tag of pPICZaA
B9: KD408 (designed binder)
chain: CDRHKGPKYDGFRDRTHKGHKCQYWDKPRPHHHGHKHGDEFRNRLGKNYCRNPDSQAEPWCFTHKDKYKYELCYQPRC
B10: KD459 (designed binder)
chain: CSRYRGHKYDGYKHRTYKGYQCQSWTKDKPHHHGIRHRNKIRDRFGKNYCRNPDTQNQPWCFTYGDEYRYELCNKPRC
B11: KD456 (designed binder)
chain: CDKNRGNGYDGNEIQTDGGVQCQHWTKTKPHHHGLKLQHEHRVKHEKNYCRNPDARTQPWCFTDKHQHKDELCIEPRC
B12: KD537 (designed binder)
chain: CTRTKGAKYDGYKHRTHEGNKCQSWNKARPHLHGDRLGNKYEHKARKNYCRNPDNRAEPWCFTDKNQNQHELCYGPRC
B13: KD445 (designed binder)
chain: CHETKGHKYDGHRLRTNKGDRCQPWTKDKPHHHGFRDQYQVRYKLKKNYCRNPDDQNKPWCFTDGNQHEHELCNGPRC
B14: KD555 (designed binder)
chain: CDGAQGNGYDGNKHKTHRGNKCQAWPKHGPHYHGNGDQDGHRNKHKKNYCRNPDTRSRPWCFTDQNGHKDELCHGPRC
notes: also called KDS55
B15: KD421 (designed binder)
chain: CAGAEGNEYDGDKYKTHKGYRCQRWDKSRPHNHGNKDRHQHENKVGKNYCRNPDNEAEPWCFTDQHKHGNELCDRPRC
B16: KD437 (designed binder)
chain: CAKSRGYKYDGNRYKTNKGDKCQAWTKTKPHDHGHRHGHGDRFRNRKNYCRNPDHESKPWCFTYRDRYRHELCNRPRC
B17: KD505 (designed binder)
chain: CPEDQGDEYDGHEHKTHRGNRCQSWYRPKPHNHGHRIKDRYKYKVKKNYCRNPDTQARPWCFTNRHRDEHELCDQPRC
notes: also called KDS05
B18: KD409 (designed binder)
chain: CAKDKGDKYDGHKHKTNRGDKCQTWAKNRPHFHGHRFEVGHEHKIRKNYCRNPDDQDKPWCFTHGYRNQDELCDGPRC
B19: KDT08 (designed binder)
chain: CPKSGGNGYDGYKHGTNEGLQCQNWDRAKPHDHGIEVQNEYGDRHEKNNCRNPDDKTRPWCFTHKDRYRNELCYQPRC
notes: Soluble monomer from Pichia pastoris; also called KRT08; not shown: C-terminal myc tag-6xHis tag of pPICZaA
B20: KD509 (designed binder)
single chain: CAQSKGYRYDGDKDKTNKGHKCQDWAQNKPHVHGHRHEDRHQVKSRKNYCRNPDARARPWCFTNQVRYRNELCYKPRC
B21: L1234 (KD415) (designed binder)
chain: CTRSKGDEYDGHKHKTNRGLRCQHWPGTKPHFHGDKIKDRHGFRLKKNYCRNPDRELRPWCFTTDPNKRWELCDIPRC
notes: also called KD415L1234
B22: KD415L567 (designed binder)
chain: B4 chain with Y55P, E56Q, T57D, G58Q, Y66H, R67Q, N68H, D74N, I75Q
B23: L5 (KD415) (designed binder)
chain: CMHCSGENYDGKISKTMSGLECQAWDSQSPHAHGYIPSKFPNKNLKKNYCRNPDPQDQPWCFTTDPNKRWELCDIPRC
notes: also called KD415L5
B24: L56 (KD415) (designed binder)
chain: B23 chain with T64N, D65R, P66H, N67Q, K68H, R69K, W70N
notes: also called KD415L56

biological target: T3, human-derived cell death receptor 5, extracellular domain (amino acid residues 1-130), 6xHis tag (human, UniProt O14763 56-210); assay: ELISA, coated target, A405
T3 construct: extracellular domain; Expressed in E. coli; biotinylated for sorting and flow cytometry; also called DR5; TRAIL-receptor 2
T3 sequence (O14763 other isoform, or with tags, fused parts or gaps limits assumed, form in doubt): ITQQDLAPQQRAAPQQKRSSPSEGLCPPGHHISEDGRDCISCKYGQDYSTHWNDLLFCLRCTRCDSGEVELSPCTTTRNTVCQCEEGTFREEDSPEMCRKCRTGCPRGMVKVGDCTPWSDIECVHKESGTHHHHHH
Experimental: (§1) In order to measure the affinity and cross reactivity of the anti-DR4, -DR5 and -TNFα protein scaffold variants based on the Kringle domain structure to the target molecules, an enzyme-linked immunosorbent assay (ELISA) was performed. The target molecules DR4, DR5, TNFα and DcR1, DcR2 were attached to a 96 well EIA/RIA plate (COSTARCorning In., USA) by its reaction at 37° C. for 1 hour, and washed three times with 0.1% PBST (0.1% Tween20, pH 7.4, 137 mM NaCl, 10 mM Phosphate, 2.7 mM KCl, SIGMA-ALDRICH Co., USA) for 10 minutes. The target molecules were attached for 1 hour to a 96 well EIA/RIA plate in 1% PBSB (1% BSA, pH 7.4, 137 mM NaCl, 10 mM Phosphate, 2.7 mM KCl, SIGMA-ALDRICH Co., USA), and then washed three times with 0.1% PBST (0.1% Tween 20, pH 7.4, 137 mM NaCl, 10 mM Phosphate, 2.7 mM KCl, SIGMA-ALDRICH Co., USA) for 10 minutes. Then, the anti-DR4, -DR5 and -TNFα Kringle domain variants were bound, and washed three times with 0.1% PBST for 10 minutes. The anti-DR4, -DR5 and -TNFα Kringle domain variants were primarily bound to mouse-derived anti-c-myc 9e10 mAb (Ig Therapy, Korea), and secondarily bound to alkaline phosphatase (AP)-conjugated anti-mouse mAb (Sigma). Each of the Kringle domain variants was reacted with […] (pNPP, Sigma-aldrich Co., USA) and quantified at an absorbance of 405 nm.

Binder | EC50 (read off the curve) [µM]
B1 | ~0.4
B2 | ~5
B3 | ~2

biological target: T1, DcR1; assay: yeast display, flow cytometry MFI [panel KD506]

Binder | binding result
B4 | no binding
B5 | no binding
B6 | no binding
B7 | no binding

biological target: T4, human-derived cell death receptor 4, extracellular domain (amino acid residues 1-216), 6xHis tag (human, UniProt O00220 24-239); assay: yeast display, flow cytometry MFI [panel KD506]
T4 construct: extracellular domain; Expressed in E. coli; biotinylated for sorting and flow cytometry; residues 1-216; also called DR4; TRAIL-receptor 1
T4 sequence (O00220 other isoform, or with tags, fused parts or gaps): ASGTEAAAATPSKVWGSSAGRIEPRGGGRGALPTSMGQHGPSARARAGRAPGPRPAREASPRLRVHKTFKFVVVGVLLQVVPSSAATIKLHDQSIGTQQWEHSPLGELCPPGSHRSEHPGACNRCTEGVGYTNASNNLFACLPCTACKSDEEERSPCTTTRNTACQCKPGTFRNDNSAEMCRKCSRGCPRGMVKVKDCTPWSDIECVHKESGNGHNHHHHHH

Binder | binding result
B4 | no binding
B5 | no binding
B6 | no binding
B7 | no binding

biological target: T2, DcR2; assay: yeast display, flow cytometry MFI [panel KD506]

Binder | binding result
B4 | no binding
B5 | no binding
B6 | no binding
B7 | no binding

biological target: T4, human-derived cell death receptor 4, …; assay: ELISA, coated target, A405
Experimental: as §1

Binder | EC50 (read off the curve) [µM] | binding result
B8 | ~0.6 | –
B9 | – | binds
B10 | ~2 | –
B11 | ~2 | –

biological target: T1, DcR1; assay: ELISA, coated target, single binder concentration not given, A405
Experimental: as §1

Binder | binding result
B9 | no binding
B12 | no binding
B1 | no binding
B13 | no binding
B14 | no binding
B15 | no binding
B16 | no binding
B17 | no binding
B11 | no binding
B3 | no binding
B18 | no binding

biological target: T4, human-derived cell death receptor 4, …; assay: as above
Experimental: as §1

Binder | binding result
B12 | no binding
B1 | no binding
B13 | binds
B14 | no binding
B15 | binds
B2 | binds
B19 | no binding
B16 | binds
B17 | no binding
B3 | no binding
B18 | binds

biological target: T2, DcR2; assay: as above
Experimental: as §1

Binder | binding result
B8 | no binding
B9 | no binding
B12 | no binding
B1 | no binding
B13 | no binding
B14 | no binding
B15 | no binding
B16 | no binding
B20 | no binding
B17 | no binding
B11 | no binding
B3 | no binding
B18 | no binding

biological target: T1, DcR1; assay: yeast display, flow cytometry MFI [panel KD415]

Binder | binding result
B21 | no binding
B22 | no binding
B23 | no binding
B24 | no binding

biological target: T2, DcR2; assay: yeast display, flow cytometry MFI [panel KD415]

Binder | binding result
B21 | no binding
B22 | no binding
B23 | no binding
B24 | no binding
